The text below walks through data of patent publication US20170121397A1 (PROTHENA BIOSCIENCES, published 2017).

Ends that are not written are not given here.

The target in assay [1] is T1, mouse C-terminal medin peptide (mouse, also: conjugated to OVA in the ELISA).
T1 construct: also called mouse c-terminal peptide; mouse C-terminal peptide-OVA
T1 peptide: CGGHIQYVA
Description: direct ELISA, plate coated with mouse C-terminal peptide-OVA at 2.5 ug/mL, goat anti-mouse HRP, ABTS, OD 405 nm. As to the method: (§1) To further characterize antibodies of interest, ELISA titration curves were generated to determine antibody binding to human lactadherin (FIG. 1A, Sino Biological In.), full-length human medin peptide (50 aa, FIGS. 1A and B) or to the human or mouse C-terminal peptides (see FIG. 1B). Plates were coated with full length human medin, human C-terminal peptide-OVA, mouse C-terminal peptide-OVA and lactadherin at 2.5 ug/mL, 50 uL/well and incubated for about 1 hour at room temperature. The plates were then blocked with 1% BSA/PBS at room temperature. After about 15 minutes, plates were emptied and antibodies of interest were then added to the plates and after a 1 hour incubation at room temperature, the plates were washed with wash buffer. The detection antibody, goat anti-mouse antibody conjugated to horseradish peroxidase (Jackson ImmunoResearch) diluted 1:2,000 in 0.5% BSA/PBS/TBS-T was added to plates and incubated for 1 hour at room temperature. Finally, the plates were washed and then incubated with ABTS substrate (Thermo Scientific) for 15 minutes at room temperature to visualize signal and read at 405 nm on a microplate reader.
On the technique in general: An ELISA detects its analyte on a solid surface through an enzyme-linked reagent.

For assay [2], the target named is T2, full length human medin (50 aa) (human).
T2 construct: Synthetic peptide (American Peptide, Cat # 366587 in the Western blot); Monomer and multimer/oligomer bands seen in Western blot; also called medin peptide; full-length human medin peptide
T2 peptide: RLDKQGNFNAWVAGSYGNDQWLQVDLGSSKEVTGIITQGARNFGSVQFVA
Briefly: direct ELISA, plate coated with full length human medin at 2.5 ug/mL, goat anti-mouse HRP, ABTS, OD 405 nm. How it is done:
as §1

In assay [3] the target is T3, human C-terminal medin peptide (human, also: conjugated to OVA in the ELISA).
T3 construct: also called human c-terminal peptide; human C-terminal peptide-OVA
T3 peptide: CGGSVQFVA
Description: direct ELISA, plate coated with human C-terminal peptide-OVA at 2.5 ug/mL, goat anti-mouse HRP, ABTS, OD 405 nm. How it is done:
as §1

Assay [4] has as its target T2, full length human medin (50 aa). Briefly: Biacore SPR, antibody captured on anti-mouse chip, medin as analyte, global 1:1 fit. How it is done: Anti-mouse antibody (GE Heathcare) was immobilized on a sensor chip […] (lacking dextran chains) via amine coupling following the instructions provided in the GE Healthcare anti-mouse kit. Anti-medin monoclonal antibodies of interest were then captured on the chip at a level that ensured a maximum binding of analyte at 30-50 RU. Various concentrations of analyte, full-length human medin (50 aa, FIGS. 1A and B) were passed over the captured ligand at 30 ul/min in running buffer (Hepes buffered saline+0.05% P-20, 1 mg/mL BSA) in either 2-fold or 3-fold dilutions, depending on the magnitude of the spanned concentration range. For each concentration, the reaction proceeded for a period of time needed for the higher analyte concentrations to reach equilibrium during association, as well as at least 10% of signal to decay during dissociation. At least one concentration (not the highest or lowest) was run in duplicate. […] The data were doubled referenced to both an irrelevant sensor not containing the medin antibodies and a 0 nM concentration of medin to account for the dissociation of antibodies from the anti-mouse sensor. The data was then analyzed with a global 1:1 fit using the Biacore software.

The target of assay [5] is T4, human lactadherin polypeptide (Sino Biological) (human, UniProt Q08431 24-387).
T4 construct: Bought protein; also called MFG-E8; synthetic lactadherin polypeptide
T4 sequence (looked up): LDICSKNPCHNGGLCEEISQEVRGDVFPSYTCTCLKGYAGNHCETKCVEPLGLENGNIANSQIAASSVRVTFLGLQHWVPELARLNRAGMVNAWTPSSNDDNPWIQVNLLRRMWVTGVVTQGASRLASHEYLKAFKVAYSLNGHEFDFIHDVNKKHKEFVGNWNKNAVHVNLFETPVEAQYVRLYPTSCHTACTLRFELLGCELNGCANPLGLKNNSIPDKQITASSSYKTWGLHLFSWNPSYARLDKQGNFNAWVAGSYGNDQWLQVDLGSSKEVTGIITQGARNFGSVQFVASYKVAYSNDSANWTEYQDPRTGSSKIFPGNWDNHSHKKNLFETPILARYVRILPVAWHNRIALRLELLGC
Description: direct ELISA, plate coated with human lactadherin at 2.5 ug/mL, goat anti-mouse HRP, ABTS, OD 405 nm. As to the method: as §1

B1: mouse monoclonal antibody 18G1 (antibody, V domains shown)
VH: EVQLVESGGGLVKPGGSLKLSCAASGFTFSSYAMSWVRQTPEKRLEWVAGISSGDYYTYYPDTVKGRFTISRDNARNTLYLQMRSLRSEDTAMYYCVRGRGNTGPRVGYWGQGTSVTVSS
VL: DIVMTQSQKFMSTSVGDRVSVTCKASQNVGTNVAWYQQKPGQSPKALIYSASYRYSGVPDRFTGSGSGTDFTLTISNVQSEDLAEYFCQQYNSFPLTFGAGTKLELK
notes: Mouse hybridoma IgG raised against the human C-terminal medin peptide; also called m18G1; PRT18G1
Take B1: the EC50 (read off the curve) (as a rule, the concentration that produces a half-maximal response) in assay [1] was about 0.05 µg/mL. The “EC50 (read off the curve)” value in assay [2] is about 0.04 µg/mL. Besides, the “EC50 (read off the curve)” value in assay [3] was about 0.07 µg/mL. Besides, in assay [4], the Kd (usually the constant that tells how readily two partners part at equilibrium) is 12.1 nM; the koff (in general, a measure of how fast the partners let go of each other) stood at 0.00712 s⁻¹; the kon (usually the second-order rate constant of association) amounted to 590000 M⁻¹ s⁻¹.

B2: mouse monoclonal antibody 6B3 (antibody, V domains shown)
VH: QVTLKESGPGILQPSQTLSLTCSFSGFSLSTSDMGVGWIRQPSGKGLEWLAHIWWNDNKYYNIALKNRLTVSKDTSNNQVFLKIASVDTADTATYYCARLVGSWFAYWGQGTLVTVSA
VL: DIQMTQTTSSLSASLGDRVTISCRASQDISNFLSWYHQKPDGTVKLLIYYTSRLHSGVPPRFSGSGSGTDYSLTISNLEQEDIATYFCQQGKTLPPTFGGGTKLEIK
notes: Mouse hybridoma IgG raised against full-length human medin; also called m6B3; PRT6B3
With B2, the binding result in assay [1] was “no binding (tested: 10 ug/ml)”. The half-maximal effective concentration (EC50 (read off the curve)) in assay [5] was about 0.2 µg/mL. In addition, the “EC50 (read off the curve)” value in assay [2] is about 0.1 µg/mL. Further, the binding result in assay [3] is “no binding (tested: 10 ug/ml)”. Besides, in assay [4], binding was put at a Kd of 1.04 nM, the koff was 0.000951 s⁻¹ and the association rate constant (kon) is 1.11e+06 M⁻¹ s⁻¹.
